Test results reported in the supplement of paper PMC10724198.
± gives the standard deviation of the averaged measurements.

Tested on: Saccharomyces cerevisiae
Assay: protein stability index of tFT-peptide fusion (C-terminal peptide) (PSI (0-1 scale)); higher = more stable (slower turnover)
Details: genetic background: wild type; temperature: 30 C
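Further: PSI is a weighted mean of sequencing reads over stability bins, variants kept only with over 10 reads, mCherry proximal and sfGFP distal, peptide attached via GGGS linker.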

| Sequence | protein stability index |
| --- | --- |
| GQIKIRAFPKSR | 0.662 ± 0.052 |
| TKYIGDGCVCSC | 0.645 ± 0.018 |
| VRRHPQYPLLRV | 0.541 ± 0.0099 |
| LPNRRRLFLFPS | 0.735 ± 0.05 |
| NRNIRKKKIKNK | 0.668 ± 0.054 |
| GGGLSRVEGFGP | 0.6681 ± 0.0038 |
| LDFSAWRYGRSW | 0.83 ± 0.038 |
| GLAGWCGGGWAL | 0.705 ± 0.026 |
| PSPPPTPPPFLP | 0.71 ± 0.054 |
| RALGDGRLGQDT | 0.682 ± 0.014 |
| FRYRLACRPIYQ | 0.616 ± 0.038 |
| VAAFGGGRTNGV | 0.724 ± 0.024 |
| GRGLVDLLCGWV | 0.683 ± 0.074 |
| KREKKNTYIKKV | 0.671 ± 0.04 |
| PRPSPFIGLPFP | 0.749 ± 0.067 |
| GGCDVCGVQWIG | 0.73 ± 0.054 |
| CLGLVSLSGGAR | 0.712 ± 0.073 |
| TPSYSPPSRHDP | 0.634 ± 0.093 |
| GRGICFGLPFLR | 0.683 ± 0.039 |
| LPSPHPPPPPAH | 0.727 ± 0.081 |
| SRTYAHSPPLPA | 0.699 ± 0.027 |
| LQPPAPPSPQSD | 0.702 ± 0.081 |
| CGRSGALGPWGG | 0.673 ± 0.0053 |
| SYCRPPPLPGLP | 0.628 ± 0.038 |
| PLLPPLPPPLPP | 0.692 ± 0.1 |
| SPLSLPPPHPPP | 0.654 ± 0.0069 |

| Sequence | protein stability index |
| --- | --- |
| PLRRSTSPLILL | 0.648 ± 0.033 |
| FEAVDSLFMLVL | 0.686 ± 0.034 |
| LCVGQVGLWVGR | 0.703 ± 0.042 |
| KKTEGATEERKR | 0.692 ± 0.015 |
| AFRCGGGPGDFA | 0.6513 ± 0.0027 |
| FRRARRLRWFGG | 0.637 ± 0.03 |
| LSFSSLYFPSLC | 0.651 ± 0.081 |
| ASGAPGRGRGVV | 0.697 ± 0.083 |
| LGCLRLVPSPPG | 0.757 ± 0.1 |
| PPPPPPLPPPPL | 0.671 ± 0.019 |
| CSPSYTCRIISF | 0.7076 ± 0.006 |
| LLPPQPYTPLHL | 0.679 ± 0.13 |
| HEHFRDRAGPAS | 0.636 ± 0.017 |
| RLKKKKKEIKRR | 0.721 ± 0.011 |
| WGSSGCLFGTVG | 0.769 ± 0.12 |
| APPPPPPSPRVP | 0.71 ± 0.047 |
| FRLLLLKIKSEQ | 0.619 ± 0.034 |
| AIACYLGLTSYP | 0.647 ± 0.021 |
| GWTQFVLHSMFG | 0.72 ± 0.088 |
| SRVVCVGGRLFG | 0.702 ± 0.045 |
| PPAPAPPAPPPL | 0.649 ± 0.027 |
| WEQQTSLPLLSL | 0.712 ± 0.021 |
| RRKTKTYRSWME | 0.649 ± 0.035 |
| PPAPPHPPPLSP | 0.695 ± 0.04 |
| LVRRTLWGSGCL | 0.666 ± 0.013 |
| PSLTLPPSPRFP | 0.7585 ± 0.0029 |

| Sequence | protein stability index |
| --- | --- |
| RLGGSLQRGKVV | 0.734 ± 0.088 |
| PVPPPLSPLPTP | 0.703 ± 0.11 |
| FRLLFSFFWGYV | 0.595 ± 0.033 |
| SVNGTGGGVVDL | 0.638 ± 0.12 |
| QNWREDNKGKDI | 0.697 ± 0.032 |
| SCFVWAFRCWGF | 0.621 ± 0.043 |
| LHLPPPLPSTLP | 0.671 ± 0.012 |
| SPSPPLPSRLIL | 0.673 ± 0.026 |
| AGGRGGGGGGDA | 0.663 ± 0.0071 |
| TWGLGVFSIMDC | 0.633 ± 0.052 |
| PSVRQSSPRFLH | 0.667 ± 0.067 |
| YRIWFSSFLHPT | 0.741 ± 0.18 |
| RSPSTRHVGLSW | 0.6696 ± 0.00085 |
| PTSQRPFFLISP | 0.704 ± 0.015 |
| PHDRSPPHGPKL | 0.742 ± 0.1 |
| FLLPPASLSLPP | 0.7074 ± 0.0034 |
| ASLSKLTLKVTV | 0.586 ± 0.057 |
| GTGERHIASEEK | 0.728 ± 0.013 |
| AAWSGGGAGCWT | 0.708 ± 0.041 |
| QGVLKYPRPSPP | 0.7071 ± 0.0016 |
| GFSDCGLYRVSC | 0.713 ± 0.0097 |
| ILGPPPRLPFPS | 0.657 ± 0.012 |
| PHRLLTQITTGT | 0.746 ± 0.12 |
| RGFGPTPRSSGG | 0.707 ± 0.046 |
| VSLSPVFLGFYR | 0.706 ± 0.024 |
| YLPSTAHSAHPP | 0.737 ± 0.045 |

| Sequence | protein stability index |
| --- | --- |
| LVRCRKGEGRGA | 0.701 ± 0.032 |
| RKEGRRGRRGAK | 0.691 ± 0.069 |
| GGGGALGRVWPG | 0.685 ± 0.02 |
| LPILRVVNLMGL | 0.5935 ± 0.0048 |
| GEVGRGGEWGLD | 0.711 ± 0.077 |
| SLRRLSPLPLAS | 0.7 ± 0.04 |
| QLGVVDVIIGAS | 0.679 ± 0.052 |
| KKKKKKKKKKTR | 0.6407 ± 0.0016 |
| VCNFQIGGDRGV | 0.71 ± 0.052 |
| LYGREPAGAEPT | 0.633 ± 0.022 |
| LYHARTIRQSAK | 0.701 ± 0.018 |
| YTLPVHPAFVFP | 0.683 ± 0.071 |
| MPVWGGSASRAL | 0.713 ± 0.066 |
| SLSEEWAHIGGL | 0.643 ± 0.0072 |
| LPPVQARDPNWQ | 0.6367 ± 0.0014 |
| ISQNPYNGTGQE | 0.6886 ± 0.001 |
| ASCLNYSSNRRP | 0.617 ± 0.064 |
| MYTCMSSNPLAC | 0.66 ± 0.039 |
| FPWISPCCFTFP | 0.64 ± 0.042 |
| PHPPHPPPPPPS | 0.689 ± 0.036 |
| ITVWVLSDGIGV | 0.5619 ± 0.002 |
| VGCSGGRGAGVV | 0.649 ± 0.018 |
| PPHPLLSPPPFP | 0.821 ± 0.088 |
